The target in one experiment is T1, 4H895-AA.
T1 chain: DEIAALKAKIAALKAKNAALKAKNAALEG
Nature of the experiment: two-hybrid library CCmax.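 Note: natural log of median RNA to DNA barcode read ratio; higher means stronger binding.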 To be noted: mean of both orientations.

The target of another experiment is T2, 4H_APH.
T2 chain: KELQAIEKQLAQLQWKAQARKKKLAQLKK
Nature of the experiment: two-hybrid library CCmax.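 Note: natural log of median RNA to DNA barcode read ratio; higher means stronger binding.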

In another experiment the target is T3, 4H_BCR.
T3 chain: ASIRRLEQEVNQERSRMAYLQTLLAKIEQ
Nature of the experiment: two-hybrid library CCmax.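 Note: natural log of median RNA to DNA barcode read ratio; higher means stronger binding.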 To be noted: mean of both orientations.

The next experiment has as its target GCN2_T. Nature of the experiment: two-hybrid library CCmax.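 Note: natural log of median RNA to DNA barcode read ratio; higher means stronger binding.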
In the next experiment the target is 4H_GCN4. Nature of the experiment: two-hybrid library CCmax.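 Note: natural log of median RNA to DNA barcode read ratio; higher means stronger binding.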
In another experiment the target is T4, 4H58-AA.
T4 chain: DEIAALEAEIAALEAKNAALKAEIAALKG
Nature of the experiment: two-hybrid library CCmax.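 Note: natural log of median RNA to DNA barcode read ratio; higher means stronger binding.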

In another experiment the target is T5, 4H906-bH.
T5 chain: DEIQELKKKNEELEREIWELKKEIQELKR
Nature of the experiment: two-hybrid library CCNG1.

The next experiment deals with T6, 4H626-bH.
T6 chain: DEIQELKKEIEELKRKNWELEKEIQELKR
Nature of the experiment: two-hybrid library CCNG1.

A further experiment concerns the target T7, 4H626-bA.
T7 chain: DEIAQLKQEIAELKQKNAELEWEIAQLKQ
Nature of the experiment: two-hybrid library CCNG1.

A further experiment concerns the target T8, 4H906-bA.
T8 chain: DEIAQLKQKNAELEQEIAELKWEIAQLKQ
Nature of the experiment: two-hybrid library CCNG1.

The target in another experiment is T9, 4H855-bN.
T9 chain: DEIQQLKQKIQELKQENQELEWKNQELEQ
Nature of the experiment: two-hybrid library CCNG1.

The next experiment deals with T10, 4H780-bN.
T10 chain: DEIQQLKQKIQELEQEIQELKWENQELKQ
Nature of the experiment: two-hybrid library CCNG1.

The target of the next experiment is T11, 4H797-bN.
T11 chain: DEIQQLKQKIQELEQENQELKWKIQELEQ
Nature of the experiment: two-hybrid library CCNG1.

A further experiment deals with T12, 4H968-bN.
T12 chain: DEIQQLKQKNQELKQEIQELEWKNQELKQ
Nature of the experiment: two-hybrid library CCNG1.

The next experiment has as its target T13, 4H683-bN.
T13 chain: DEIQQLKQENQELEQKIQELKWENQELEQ
Nature of the experiment: two-hybrid library CCNG1.

The next experiment concerns the target T14, 4H953-bN.
T14 chain: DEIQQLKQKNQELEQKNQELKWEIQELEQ
Nature of the experiment: two-hybrid library CCNG1.

Another experiment deals with T15, 4H918-bN.
T15 chain: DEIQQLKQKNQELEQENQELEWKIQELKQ
Nature of the experiment: two-hybrid library CCNG1.

The target of another experiment is T16, 4H754-bN.
T16 chain: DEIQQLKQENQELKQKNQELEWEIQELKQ
Nature of the experiment: two-hybrid library CCNG1.

Another experiment has as its target T17, 4H780-bH.
T17 chain: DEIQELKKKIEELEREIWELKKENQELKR
Nature of the experiment: two-hybrid library CCNG1.

The target of another experiment is T18, 4H797-bH.
T18 chain: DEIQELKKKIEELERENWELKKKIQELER
Nature of the experiment: two-hybrid library CCNG1.

In the next experiment the target is T19, 4H918-bH.
T19 chain: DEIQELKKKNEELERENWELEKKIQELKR
Nature of the experiment: two-hybrid library CCNG1.

The target in a further experiment is T20, 4H754-bH.
T20 chain: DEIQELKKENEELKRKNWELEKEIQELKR
Nature of the experiment: two-hybrid library CCNG1.

The target in a further experiment is T21, 4H953-bH.
T21 chain: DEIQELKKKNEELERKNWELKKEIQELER
Nature of the experiment: two-hybrid library CCNG1.

Another experiment concerns the target T22, 4H855-bH.
T22 chain: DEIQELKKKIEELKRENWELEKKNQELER
Nature of the experiment: two-hybrid library CCNG1.

A further experiment has as its target T23, 4H949-bH.
T23 chain: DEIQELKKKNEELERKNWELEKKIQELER
Nature of the experiment: two-hybrid library CCNG1.

Another experiment concerns the target T24, 4H683-bH.
T24 chain: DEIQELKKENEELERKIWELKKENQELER
Nature of the experiment: two-hybrid library CCNG1.

The next experiment has as its target T25, 4H968-bH.
T25 chain: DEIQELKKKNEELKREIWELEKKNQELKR
Nature of the experiment: two-hybrid library CCNG1.

Interaction score data for five molecules are collected here from publication PMC10397247.

Sequence of 4H_GCN4 (chain, as listed by the source): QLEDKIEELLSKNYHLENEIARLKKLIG

Consider DEIAALEAEIAALEAKNAALKAEIAALKG [4H58-AA], for which the interaction score with 4H895-AA is -0.545; with 4H_APH it was -1.68; in the experiment with 4H_BCR, -2.14; with GCN2_T, -0.172; with 4H_GCN4 it was 0.011; with 4H58-AA, 1.75.

Take DEIQELKKEIEELKRKNWELEKEIQELKR [4H626-bH]: the interaction score in the experiment with 4H906-bH is -0.349; with 4H626-bH, 0.932.

DEIAQLKQEIAELKQKNAELEWEIAQLKQ [4H626-bA]: the interaction score with 4H626-bA was 0.86; in the experiment with 4H906-bA, -1.23.

With DEIQQLKQENQELEQKIQELKWENQELEQ [4H683-bN], the interaction score with 4H855-bN was -0.411; in the experiment with 4H780-bN, -0.606; with 4H797-bN, 0.0127; with 4H968-bN, 1.51; with 4H683-bN it was -0.0866; with 4H953-bN, -0.218. For the same molecule, the interaction score with 4H918-bN is -0.318; with 4H754-bN it was -1.46.

Take DEIQELKKENEELERKIWELKKENQELER [4H683-bH]: the interaction score in the experiment with 4H780-bH was -0.661; with 4H797-bH, -0.161; in the experiment with 4H918-bH, -1.01; with 4H754-bH it was -0.187; in the experiment with 4H953-bH, -1.23; with 4H855-bH, -0.174. Moreover, the interaction score is -0.385 with 4H949-bH, 0.562 in the experiment with 4H683-bH and 1.12 with 4H968-bH.
